Measured values taken from patent US20040077547A1, “FVIIa antagonists” (Genentech, Inc., priority 1999, published 2004).
Where no end group is shown, it is not given here.

Legend:
TF-FVIIa = target: T1, TF-FVIIa (Homo sapiens, UniProt P08709); test: FX Activation Assay; type: biochemical; details: compared with SEQ ID NO: 4
T1 construct: proteolysis of FVII to FVIIa at a site (Arg152-Ile153 for human FVII (hFVII))
Method: FX Activation Assay—Activation of FX by TF-FVIIa was monitored at room temperature as a function of peptide concentration. Each assay sample contained 100 μl of 460 pM relipidated TF1-243 (Kelley, R. F., et al. Blood 89:3219-3227 (1997)) and 30 pM FVIIa in HBS/Ca buffer (20 mM HEPES, pH 7.4, 5 mM CaCl2, 150 mM NaCl, 0.1% PEG 8000); after 20 min, 25 μl of peptide diluted in HBS/Ca Buffer was added. Following a 30 min incubation the reaction was initiated by the addition of 25 μl of 1 μM FX in HBS/Ca (Note: this yields a final concentration of 306 pM TFPC, 20 pM FVIIa, and 166 nM FX). For kinetic analysis, the final concentration of FX was varied from between 20 and 500 nM. Aliquots of 25 μl were removed at 1, 3, 5, 7 and 9 min and quenched in 25 μl of 50 mM EDTA. The FXa generated in each aliquot could be measured by the addition of 100 μl of 250 μM Spectrozyme fXa (American Diagnostica), 50 mM Tris, pH 8, 50 mM NaCl, 0.0025% Triton X-100. The rate of FXa generated at each peptide concentration was proportional to the initial slope of the absorbance at 405 nm vs. time. Sigmoidal curves were fit to a four-parameter equation by nonlinear regression analysis (Marquardt, J. Soc. Indust. Appl. Math. 11:431-441 (1963)); the concentration of each peptide required to give a half-maximal signal in the assay was calculated from the curves and is referred to as the IC50 value.

recombinant human FVIIa [1] = target: T2, recombinant human FVIIa (Homo sapiens, UniProt P08709); test: FVIIa Binding ELISA (competition with TF183b); details: for affinity for FVIIa: compared with SEQ ID NO: 4
T2 construct: proteolysis of FVII to FVIIa at a site (Arg152-Ile153 for human FVII (hFVII))
T2 sequence (P08709 61-212 limits assumed): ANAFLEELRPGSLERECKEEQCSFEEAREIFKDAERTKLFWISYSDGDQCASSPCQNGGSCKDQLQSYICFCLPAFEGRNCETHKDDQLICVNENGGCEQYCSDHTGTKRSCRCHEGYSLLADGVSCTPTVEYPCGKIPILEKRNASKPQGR
T2 sequence (P08709 213-466 limits assumed): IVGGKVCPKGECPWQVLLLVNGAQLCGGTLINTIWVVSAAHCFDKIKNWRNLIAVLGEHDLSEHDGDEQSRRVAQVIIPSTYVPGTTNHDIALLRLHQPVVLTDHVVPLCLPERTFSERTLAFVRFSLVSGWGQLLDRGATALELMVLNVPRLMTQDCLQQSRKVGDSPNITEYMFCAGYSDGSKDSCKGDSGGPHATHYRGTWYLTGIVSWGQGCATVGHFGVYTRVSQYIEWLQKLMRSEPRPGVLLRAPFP
Method: FVIIa Binding ELISA—The ability of peptides to compete with biotinylated TF183 (TF183b) (or other peptides described herein that could be biotinylated as described) for binding to FVIIa was monitored using a FVIIa Binding ELISA or a TF-FVIIa Binding ELISA. Microtiter plates were coated overnight with 2 μg/ml recombinant human FVIIa or 2 μg/ml TF1-243 (Paborsky, L. R., et al., J. Biol. Chem. 266: 21911 (1991)) in 50 mM ammonium bicarbonate pH 9 at 4° C.; all other steps were performed at room temperature. Plates were then blocked with 1% BSA in Assay Buffer (50 mM HEPES, pH 7.2, 5 mM CaCl2, 150 mM NaCl). For the TF-FVIIa ELISA, recombinant human FVIIa (2 μg/ml) in 1% BSA in Assay Buffer was added for 30 min to the wells previously coated and blocked with TF to form the TF-FVIIa complex. Dilutions of peptide in Assay Buffer plus 0.05% Tween 20 were added to the microtiter plate along with 5 nM TF183b for 1 h. The microtiter plate was washed 3 times with Assay Buffer plus 0.05% Tween 20 and the biotinylated-peptide bound was detected with a Streptavidin/HRP conjugate (Streptavidin-POD, Roche Molecular Biochemicals). The amount of HRP bound was measured using ABTS/H2O2 substrate (Kirkegaard and Perry Laboratories) and monitoring the absorbance at 405 nm. The absorbance at 405 nm was plotted versus the concentration of peptide originally added to the well. Sigmoidal curves were fit to a four-parameter equation by nonlinear regression analysis (Marquardt, J. Soc. Indust. Appl. Math. 11:431-441 (1963); the concentration of each peptide required to give a half-maximal signal in the assay was calculated from the curves and is referred to as the IC50 value.

TF-FVIIa complex = target: T3, TF-FVIIa complex (Homo sapiens, UniProt P08709); test: Peptide-phage binding to immobilized TF-FVIIa
T3 construct: proteolysis of FVII to FVIIa at a site (Arg152-Ile153 for human FVII (hFVII))
T3 sequence (P13726 33-275 partner limits assumed, one chain of several): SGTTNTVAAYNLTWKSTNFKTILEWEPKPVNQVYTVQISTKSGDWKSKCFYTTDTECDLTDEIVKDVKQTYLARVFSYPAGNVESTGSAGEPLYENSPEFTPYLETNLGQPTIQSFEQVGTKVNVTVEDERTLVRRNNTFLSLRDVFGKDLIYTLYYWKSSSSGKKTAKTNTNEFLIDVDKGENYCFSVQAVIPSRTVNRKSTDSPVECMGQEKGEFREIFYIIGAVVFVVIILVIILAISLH
Method: (§1) Selection Conditions—TF1-243 (Paborsky, L. R., et al., J. Biol. Chem. 266: 21911 (1991)) or recombinant human FVIIa (2 μg/ml each) were immobilized directly to Maxisorp plates (Nunc) in 50 mM ammonium bicarbonate, pH 9.3 by incubating overnight at 4° C. Wells were blocked using Sorting Buffer (50 mM HEPES, pH 7.2, 5 mM CaCl2, 5 mM MgCl2, 150 mM NaCl, 1% BSA) for 1 h at 25° C. Recombinant human FVIIa (2 μg/ml) in Sorting Buffer was added for 30 min to wells previously coated and blocked with TF to form the TF-FVIIa complex. Phage from the libraries described above were pooled into 3 groups. Pool A contained XiCXjCXk where j=5-7; Pool B contained X4CX2GPX4CX4, X20 and XiCXjCXk where j=4; Pool E contained XiCXjCXk where j=8-10. Phage from each pool were incubated with the immobilized targets in Sorting Buffer for 3 h at 25° C.; generally about 5×10^10 phage were added at the beginning of each round. Unbound phage were removed by repetitive washing with Wash Buffer (50 mM HEPES, pH 7.2, 150 mM NaCl, 0.005% Tween 20); remaining phage were eluted with 500 mM KCl, 10 mM HCl, pH 2. The eluted phage were then propagated in XL1-Blue cells with VCSM13 helper phage (Stratagene) overnight at 37° C. Enrichment could be monitored by titering the number of phage which bound to a target coated well compare to a well coated with BSA. […]

TF = target: T4, TF (Homo sapiens, UniProt P13726); test: Peptide-phage binding to wells coated with TF; details: polyvalent phage display; also BSA-coated wells
T4 construct: TF1-243 for membrane tissue factor composed of the extracellular domain and transmembrane amino acid residues 1-243
T4 sequence (P13726 33-275): as the sequence (P13726 33-275 partner limits assumed, one chain of several) above
Method: as §1

recombinant human FVIIa [2] = target: T2, recombinant human FVIIa; test: Peptide-phage binding to immobilized FVIIa; details: polyvalent phage display
Method: as §1

BSA = target: T5, BSA (bovine, UniProt P02769 25-607); test: phage binding to coated wells
T5 construct: Control coat
T5 sequence (P02769 25-607 limits assumed): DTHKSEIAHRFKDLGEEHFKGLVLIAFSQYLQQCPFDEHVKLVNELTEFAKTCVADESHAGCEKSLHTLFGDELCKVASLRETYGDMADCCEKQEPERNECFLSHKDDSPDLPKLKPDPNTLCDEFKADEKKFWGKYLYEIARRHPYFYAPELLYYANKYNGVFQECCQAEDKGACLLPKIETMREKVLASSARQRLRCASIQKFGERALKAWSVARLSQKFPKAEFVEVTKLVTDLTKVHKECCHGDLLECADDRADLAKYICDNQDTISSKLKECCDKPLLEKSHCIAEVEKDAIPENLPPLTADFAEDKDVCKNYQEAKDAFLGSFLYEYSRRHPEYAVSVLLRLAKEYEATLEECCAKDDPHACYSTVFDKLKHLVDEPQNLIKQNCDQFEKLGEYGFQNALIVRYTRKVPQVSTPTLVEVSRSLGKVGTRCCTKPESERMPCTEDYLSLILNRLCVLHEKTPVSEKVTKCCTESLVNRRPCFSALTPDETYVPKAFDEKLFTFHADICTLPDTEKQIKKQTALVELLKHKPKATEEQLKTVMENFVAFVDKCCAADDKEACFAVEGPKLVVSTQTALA

T1 sequence (P13726 33-275 partner limits assumed, one chain of several): as the sequence (P13726 33-275 partner limits assumed, one chain of several) above

TF100Z: TF100 peptide fused to the Z consensus domain of protein A (EEWEVLCWTWETCERGEGGGGSGG)
ability to inhibit FX activation (TF-FVIIa): increased ability to inhibit FX activation
affinity for FVIIa (recombinant human FVIIa [1]): improved affinity

EEWEVLCWTWETCERGEG [TF100]
ability to inhibit FX activation (TF-FVIIa): increased ability to inhibit FX activation
affinity for FVIIa (recombinant human FVIIa [1]): improved affinity

EEWEVLCWTWETCER [TF183]
IC50 for FVIIa (recombinant human FVIIa [1]; compared with TF65 (SEQ ID NO: 4), values in FIG. 4, not given): decreased IC50

SAEWEVLCWTWEGCGSVGLV [TF53]
binding to covalently and noncovalently active site blocked TF-FVIIa (TF-FVIIa complex; active site alkylated with biotinylated EGR chloromethylketone or blocked by TF7I-C): bound
binding of phage bearing the sequence to immobilized TF-FVIIa (TF-FVIIa complex; polyvalent phage display): bound specifically
binding of phage bearing the sequence to wells coated with TF (TF): did not bind
binding of phage bearing the sequence to immobilized FVIIa (recombinant human FVIIa [2]): bound specifically

B1: TF53 peptide-phage (polyvalent phage clone from Pool A bearing SAEWEVLCWTWEGCGSVGLV) (peptide)
peptide: SAEWEVLCWTWEGCGSVGLV
modifications: cysteine pairing not given here; also: displayed on phage as a coat-protein fusion
binding result (BSA): no binding
